The experiment addresses recombinant Δ6 evasin-4 (truncated, N-terminally 6His tagged evasin-4, amino acids 24-127), purified (Rhipicephalus sanguineus). The experiment can be described thus: SPR (Biacore 3000), Δ6 evasin-4 immobilized on CM4 chip, chemokine injected.

B1: XCL1/lymphotactin (ligand)
chain: VGSEVSDKRTCVSLTTQRLPVSRIKTYTITEGSLRAVIFITKRGLKVCADPQATWVRDVVRSMDRKSNTRNNMIQTKPTGTQQSTNTAVTLTG
As for B1, the binding result is reported as “no binding (tested: 0.1 µg/ml)”.

B2: CCL13/MCP-4 (ligand)
chain: not shown
Take B2: the binding result is given as “no binding (tested: 0.1 µg/ml)”.
